For one molecule, binding result and Kd results are on record in PMC10639050, “ZNF432 stimulates PARylation and inhibits DNA resection to balance PARPi sensitivity and resistance”.

The target of data set [1] is ZNF432 KRAB domain (Homo sapiens, UniProt O94892 1-205). As to the kind of experiment: EMSA; negligible binding; 1-6 nM protein, no fixation; 25 mM MOPS pH 7.0, 60 mM KCl, 0.2% Tween, 2 mM DTT, CaCl2 (40 nM as printed with glutaraldehyde fixation; 1 mM without fixation for Kd), 37 C 30 min; 8% TBE acr. Conditions: protein: recombinant; tags: His (GST removed with PreScission); label: 32P (gamma-32P); single strand.
ZNF432 KRAB domain, sequence (O94892 1-205): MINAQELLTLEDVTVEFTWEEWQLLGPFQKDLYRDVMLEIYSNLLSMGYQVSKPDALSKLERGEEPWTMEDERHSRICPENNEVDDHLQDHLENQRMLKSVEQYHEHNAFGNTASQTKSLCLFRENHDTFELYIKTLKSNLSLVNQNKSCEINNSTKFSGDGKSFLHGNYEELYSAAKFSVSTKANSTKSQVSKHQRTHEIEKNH

The target in data set [2] is ZNF432 full-length (Homo sapiens, UniProt O94892 1-652). As to the kind of experiment: EMSA; no fixation, 1 mM CaCl2; 100 nM DNA stated, protein 1-6 nM; 25 mM MOPS pH 7.0, 60 mM KCl, 0.2% Tween, 2 mM DTT, CaCl2 (40 nM as printed with glutaraldehyde fixation; 1 mM without fixation for Kd), 37 C 30 min; 8% TBE acr. Conditions: protein: recombinant; tags: C-terminal 10xHis (GST removed with PreScission); label: 32P (gamma-32P); single strand. In general terms: A gel shift assay detects complexes by their altered migration in electrophoresis.
ZNF432 full-length, sequence (O94892 whole entry): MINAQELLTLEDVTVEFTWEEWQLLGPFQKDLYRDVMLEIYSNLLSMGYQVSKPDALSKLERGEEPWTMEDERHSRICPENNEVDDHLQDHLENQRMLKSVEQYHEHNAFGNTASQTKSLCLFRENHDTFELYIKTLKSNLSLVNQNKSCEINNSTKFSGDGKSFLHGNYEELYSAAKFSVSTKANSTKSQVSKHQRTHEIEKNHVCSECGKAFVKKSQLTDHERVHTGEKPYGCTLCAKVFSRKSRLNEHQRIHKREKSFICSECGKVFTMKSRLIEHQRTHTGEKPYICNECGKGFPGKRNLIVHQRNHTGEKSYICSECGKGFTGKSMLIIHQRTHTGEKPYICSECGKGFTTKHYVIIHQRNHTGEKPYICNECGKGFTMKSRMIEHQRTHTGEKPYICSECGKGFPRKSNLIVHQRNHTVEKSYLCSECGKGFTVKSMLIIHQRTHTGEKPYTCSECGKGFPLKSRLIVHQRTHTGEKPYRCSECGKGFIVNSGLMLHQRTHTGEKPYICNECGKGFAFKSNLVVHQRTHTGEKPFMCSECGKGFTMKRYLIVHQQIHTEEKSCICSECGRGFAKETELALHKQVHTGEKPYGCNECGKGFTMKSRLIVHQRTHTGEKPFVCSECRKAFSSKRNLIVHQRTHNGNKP

B1: Single-stranded DNA (ssDNA)
DNA: GGGCGAATTGGGCCCGACGTCGCATGCTCCTCTAGACTCGAGGAATTCGGTACCCCGGGTTCGAAATCGATAAGCTTACAGTCTCCATTTAAAGGACAAG
By Kd is commonly meant a measure of binding affinity in units of concentration. For B1, the binding result in data set [1] was “no binding”. Also, in data set [2], the Kd was determined as 5.41 nM.
